Assay: yeast display, Sf9 membrane polyspecificity reagent, FACS + sequencing; frameworks hold sequencing errors
Procedure, shortened: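 A synthetic nanobody library was expressed on Saccharomyces cerevisiae BJ5465 by galactose induction for 36–48 hours. The library was stained for 1 hour at 4 °C with 10% biotinylated, detergent-solubilized Sf9 membrane reagent and enriched with streptavidin microbeads before FACS. Low and high (top ~1%) gates were set on anti-HA fluorescence for expression and streptavidin fluorescence for reagent binding, and each polyreactivity label reflects the gate of origin.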

Row | Sequence | polyreactivity (PSR sort gate)
1 | QVQLVESGGGLVQAGGSLRLSSAASRRIFSEYAMGWNRPEPGKERELVAAISKSGGRTYYADSVKGRFTISRDNAKNTVYFQMNSLKPEETAVDYCNARAVYPAGYAYDYWGQGTQVTVSS | high polyreactivity
2 | QVQLVESGGGLVQAGGSLRLSCSASGSTFPPNAMGWYRQAPGKERELVAVISYSDGSTYYADSVKGRFTISRDNAKNTVYLQMNSLKPEDTAVYYCAAYSGYGGVSMYYWGQGTQVTVSS | low polyreactivity
3 | QVQLVESGGGLVQAGGSLRLSCAASGSTYRGYAMGWYRQAPGKERELVAAISWTGGSTYNADSVKGRYTISRDNAKNTVYLQMNSLKPEDTAVYYCNTYVKDWGGYSYRYRYYYWGQGTQVTVSS | high polyreactivity
4 | QVQLGESGGGLVEAGGSLRLSCAASGSTCKFYVMGWYRQAPGKERELVAAIAIGGSTNYADSVKGRFTISRDNAKNTVSVQMNSLKPEDTAVYYCAAELLQIHYYYVYLSPSFKCDYWGQGTQVTGSS | low polyreactivity
5 | QVQLLESGGGLVQAGGSLRLSCASSGSIFFRNAMVWYRQAPGKEREYVAAITGSSVSTYYADSVKGRFTISRDNAKNTVYLQMNSLKPEDTAVYYCAVRKWIGYNPYDDWGQGTQVTVSS | high polyreactivity
6 | QVQLVESGAGVGQAGGSLRLSCAASGSIFTPYAMGWYRPAPGKERELVAGITSGGNTNYADSVKGRFTISRDNAKNTVYLQMNSLKPEDTAVYYCAARYIYYYAYGYNYWGQGTKVTVSS | high polyreactivity
7 | QVQLVESGGGLVQAGGSLRLSCAASGNTIDSYAMGWYRQAPGKERELVAAISTSGGSTYYADSVKGRFTISRDNAKNTVYLQMNSLKPEDTAVYYCNATWTITYDYWGQGTQVTVSS | low polyreactivity
8 | QVQLVESGGGLVQAGGSLRLSCAASGRIFPANAMGWYRQAPGKERELVAGITWRGDSTYYADSVKGRFTISRDNAKNTVYLQMNSLKPEDTAVYYCAATFRYTKLYYWGHGTQVTVSS | low polyreactivity
9 | QVQLDESGGGLVQAGGSLRLRCAASGFIFVSYAMGWYRQAPGKERELVAAISRGGGSTYYADSVKGRFTISRDNAKNTVYLQMNSLKPEDTAVYYCAAGRFYIDDYWGQGTQVTVSS | high polyreactivity
10 | QVQLVESGGGLVQAGGSLRLSCAASGRTFYRNAMGWYRQATGKEREFVAVISVSGGSTYYADSVKGRFTISRDYAKNTVYLQMNSLKPEDTAVYYCGKRGPVRKTAYEYWGQGTQVTVSS | low polyreactivity
11 | QVQLVESGGGLVQAGGSLRLSCAASGIIFGNYAMGWYRQEPGKERELVATITWRGGSTYYADSVKGRFTISRDNAKNTVYLQMISLKPEDTAVYYCARPYASYRSFYYYGYWGQGTQVTVSS | high polyreactivity
12 | QVQLVESGGGLVQAGGSLRLTCAASGSTFKSYAMGWYRQDPGKERELVAAITVSGGSTYYADSVKGRFTISRDNAKNTVYLMMNSLTPEDTSVYYCAADSVLLKDTGYDYWGQGTQVTVSS | low polyreactivity
13 | QVQLLESGGGIVQAGGSLRLSCAASGRIFVPYAMGWYRQAPGKERELVAAISGRGDSTYYADSVKGRFTISRDNAKNSVYLQMNSLKPEDTAVYYCAKYRPYYTPSYWSRYDYWGQGTQVSVSS | high polyreactivity
14 | QVQLVESGGGLVQAGGSLRLSCAASGFIFYRYSMGWYRQAPGIERELVAAIRSSGGSTYYADSVKGRFSISRDNAKNTVYRHMNSLKPQDTAVYYCAKCFSSVLWNGIWPYDYWGQGTQVTVSS | low polyreactivity
15 | QVQLVESGGGLVQAGGSLRLSCAASGSTFTYYAMGWYRQAPGKERELVAAIDFSGTSTYYADSVKGRFTISRDNAKNTVYLQMNRLKPEDTAVYYCAASQSWYWGGAHDNGEFGYWGQGTQVTVSS | low polyreactivity
16 | QVQLVESGGGLVQAGGSLRLSCAASGRTFRSYAMGWYRQAPGKERELVAVISGGGTYYADSVKGRFTISRDNAKNTVYLQMNSLKPEDTAVYYCAAQFHFRPFSWTYDYWGQGTQVTVSS | high polyreactivity
17 | QVQLVESGGGLVQAGGSLRLSCAASGFIFSYYAMGWYRQAPGKERELVATITSGGSTNYADSVKGRFTISRDNAKNTVYLQMNSLKPEVTAVNYCATRKYRVPRSYDWGQGTQVTVTS | high polyreactivity
18 | QVQLVESGGGLVQAGGSLRLSCAASGSIFYRYAMGWYRQAPGKERELVAAITSTGSRTFYADSVKVRFTISRDNAKNTVYLQMNSLKPEDTAVYYCAADARYNGYHGVDYWGQGTLVTVSS | high polyreactivity
19 | QVQLVESGGGLVQAGGSLRLSCAASGFIFWSYAMGWYRQAPGKERELVAAIDLTGGSTYYADSVKGRFTISRDNAKNTVYFQMNSLKPEDTAVYYCNADGDTYAFTNSDSGFDYWGQGTQVTVSS | low polyreactivity
20 | QVQLVESGGGLVQAGGSLRLSCAASGRICVINAMGWYRQAPGKERELVATIDRGGSTNYADSVKGRFSISRDNAKNTVYLQMNSLKPEDTAVYYCAAGVVGKRSRTGYYWGQGTQVTVSS | low polyreactivity
21 | QVQLVESGGGLVLAGGSLRLSCAASGRSFVSNALGWSRQAPGSDRELVARISNGASTDADSVKGRFTISRDNAKKTVYLQINSLKPEDTAVYYSAKTTRRGGVALGEYDYWGQLTQVTVSS | low polyreactivity
22 | QVQLVESGGGLVQAGGSLRLSCAASGSTFDPNVMGWYRQAPGKERELVAVITTTGVSTYYADSVKGRFTISRDNAKNTVYLQMNSLKPEDTAVYYCNAKWYWYLTRDAYRYRYTYDYWGQGTQVTVSS | low polyreactivity
23 | QVQLVESGGCLVQAGGSLRLSCAASGFIFRYNAMGWYRQAPGKERELVAAISWSGTTYYADSVKGRFTISRDNAKNTVYLQMNSLKPEDTAVFYCAAGRLFYGYRDFDYWGQGTQVTVSS | low polyreactivity
24 | QVQLVESGGGLVQAGGSLRLSCAPSGSIFKYNTMGWYRQEPGKERELVATISGGGRTYYADSVKGRFTISRDNAKNTDYLQMNSLKPVDTAVYYCAARKRGNFTYDYWGQGTQVTVSS | high polyreactivity
25 | QVQLVESGGGLVQAGGSLRLNCAASGSIFDKNAMGWYRQAPGKERELVAAISRSGGSTYYADSVKGRFTISRDNAKNTVYLQMNSLKPEVTAVYYCNKYTNGRNFDYWGQGTQVTVSS | high polyreactivity
26 | QVQLVESGGGLVQAGGSLRLSCAASGRTFVYNAMGWYRQAPGKERELVAAIDGGGDRTYYADSVKGRFTISRDNAKNTVYLQMTSLNPEDTAVYYCARDPGDTYYYSYPEGDYWGQGTQVTVSS | low polyreactivity
27 | QVQLVESGGGLVQAGGSLRLSCAASGSIFARYAMGWYRQAPGKERELVAAISSNSASTYYADSVKGRFTSSRDNAKNTVYLQMNSLKPEDTAVDYCATAYRSDWLNDYWGQGTQVTVSS | low polyreactivity
28 | QVQLVESGGGLVQAGGSLRLSCAASGLTFDHYTMGWYRQATGLERELVAAITKNGGSTYYADSVKGRFTISRDNAKNTVYLQMISLKPEDTAVYYCNVGPRRVDRSRAASSDYDYWGQGTQVTVSS | high polyreactivity
29 | QVQLVESGGGLVQAGGSLRFSCAASGSIYRNNAIGWYRQAPGKERELVAAITSTGTGTYYADSVKGRFTISRDNAKNTVYFQMNSLKPEDTAVYYCAVDDDFEFGYWGQGTQVTVSS | low polyreactivity
30 | QVQLVESGGGLVQAGGSLRLSCSASGSIFDAYAMGWYRQAPGKEREMVAAISKGGTRTYYADSVKGRFTISRDNAKNTVYLQMNSLIPEDTAFYYCNSYYRREPDDGDYDYWGQGTQVTVSS | high polyreactivity
